This experiment addresses T1, CS1-Fc (human, UniProt Q9NQ25 23-226).
T1 construct: also called recombinant human CS1-Fc; CS1-Fc polypeptide; not shown: Fc portion of CS1-Fc
T1 sequence: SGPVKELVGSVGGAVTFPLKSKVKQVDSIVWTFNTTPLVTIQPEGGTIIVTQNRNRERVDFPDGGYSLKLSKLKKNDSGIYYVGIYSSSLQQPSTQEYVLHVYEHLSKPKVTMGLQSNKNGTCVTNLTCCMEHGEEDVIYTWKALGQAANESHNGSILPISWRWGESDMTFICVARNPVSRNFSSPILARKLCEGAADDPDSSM
Briefly: SPR (Biacore), adapter protein DD-GS linker-Q26, CS1-Fc target. An excerpt: One or more of the above discussed methods were used to identify the SEQ ID NO: 41-47, 49-61, 91-93 and 96-106 variant CS1 specific D domains. […] In addition to binding human CS1, the CS1DD03, CSDD006 and CS1DD007 D domains are cross-reactive with cyno/rhesus CS1.
A general note: In SPR one partner is held on a chip, and binding of the other changes the refractive index at the surface.

B1: CS1DD020-P26(Q26) Adapter (designed binder)
chain: MGSWDEFNQRLGAIEERLQALGGSEAELAALEKEIAAFESELQAYKGKGNPEVEFLRWYADGIRWELQAYRHNGGGGDGGGGSGGGGSGQESQALAKRSCGLFQKLGEYYLQNAFLVAYTKKAPQLTSSELMAITRKMAATAATCCQLSEDKLLACGEGAADIIIGHLCIRHEMTPVNPGVGQCCTSSYANRRPCFSSLVVDETYVPPAFSDDKFIFHKDLCQAQGVALQTMKQEFLINLVKQKPQITEEQLEAVIADFSGLLEKCCQGQEQEVCFAEEGQKLISKTRAALGV
notes: Monovalent Adapter: CS1DD020 D domain, GS linker, AFP p26 (Q26); The SPR sentence names only the format DD-GS linker-Q26; also called monovalent CS1DD020-P26(Q26); C1DD020 adapter protein of the format DD-GS linker-Q26
A word on the Kd: it is the constant that tells how readily two partners part at equilibrium. Consider B1, for which the Kd was 18 nM.

B2: CS1DD021 adapter protein of the format DD-GS linker-Q26 (designed binder)
chain: MGSWDEFNQRLGAFEERLQALGGSEAELAALEKEIAAFESELQAYKGKGNPEVEFLRWYADGIRWELQAYRHN
Turning to B2, the Kd stood at 16 nM.

The record behind these values is patent publication US20250353908A1 (ARCELLX, published 2025).
